Laboratory results taken from the Human Domainome abundance scans (Beltran et al. 2025).
± gives the uncertainty stated by the source.

B1: POU domain, class 3, transcription factor 3, residues 320 to 388; numbered along this chain, P20264 (parent)
chain: DDLEQFAKQFKQRRIKLGFTQADVGLALGTLYGNVFSQTTICRFEALQLSFKNMCKLKPLLNKWLEEAD

Variants of: B1
Assay: abundance fitness (aPCA) (normalised: wild type 0, dead -1); higher = more abundant; growth selection in yeast, the domain comes from the species named
Settings: Homo sapiens

Variant	abundance fitness
L31Q	-0.116 ± 0.11
L31R	0.031 ± 0.053
L31S	-0.137 ± 0.07
L31V	-0.195 ± 0.083
L31W	-0.387 ± 0.09
L31Y	-0.334 ± 0.17
Y32A	-0.412 ± 0.1
Y32D	-0.352 ± 0.18
Y32E	-0.335 ± 0.25
Y32G	-0.225 ± 0.054
Y32H	-0.099 ± 0.1
Y32K	-0.559 ± 0.3
Y32L	0.017 ± 0.12
Y32M	-0.647 ± 0.19
Y32P	-0.685 ± 0.21
Y32Q	-0.102 ± 0.17
Y32R	-0.44 ± 0.14
Y32S	0.108 ± 0.053
Y32T	-0.526 ± 0.19
Y32V	-0.557 ± 0.15
Y32W	-0.276 ± 0.14
G33A	-0.382 ± 0.096
G33D	-0.545 ± 0.16
G33F	-0.766 ± 0.38

Variant	abundance fitness
G33H	-0.753 ± 0.45
G33I	-0.7 ± 0.33
G33L	-0.922 ± 0.19
G33M	-0.792 ± 0.23
G33P	-0.204 ± 0.19
G33Q	-0.263 ± 0.44
G33S	-0.885 ± 0.36
G33V	-1.09 ± 0.23
G33W	-0.722 ± 0.46
G33Y	-0.523 ± 0.31
N34A	-0.036 ± 0.073
N34C	0.307 ± 0.11
N34D	-0.085 ± 0.26
N34E	0.136 ± 0.12
N34F	-0.569 ± 0.2
N34G	0.074 ± 0.066
N34H	-0.094 ± 0.091
N34I	-0.235 ± 0.16
N34K	0.081 ± 0.13
N34L	-0.468 ± 0.14
N34M	-0.22 ± 0.13
N34Q	-0.172 ± 0.14
N34R	-0.051 ± 0.072
N34S	0.109 ± 0.066

Variant	abundance fitness
N34T	-0.098 ± 0.17
N34V	-0.21 ± 0.078
N34W	-0.84 ± 0.23
N34Y	-0.295 ± 0.044
V35A	-0.537 ± 0.26
V35C	-0.417 ± 0.17
V35D	0.091 ± 0.086
V35E	0.172 ± 0.11
V35F	-0.179 ± 0.069
V35G	-0.204 ± 0.13
V35H	-0.152 ± 0.2
V35I	-0.609 ± 0.16
V35L	-0.462 ± 0.13
V35M	-0.278 ± 0.28
V35N	-0.601 ± 0.41
V35P	-0.105 ± 0.44
V35Q	0.033 ± 0.11
V35R	-0.009 ± 0.071
V35S	-0.125 ± 0.085
V35T	0.304 ± 0.11
V35Y	-0.108 ± 0.09
F36A	-0.068 ± 0.16
F36C	0.219 ± 0.22
F36E	-0.121 ± 0.2

Variant	abundance fitness
F36H	-0.216 ± 0.19
F36K	-0.364 ± 0.2
F36L	-0.07 ± 0.078
F36M	0.021 ± 0.13
F36P	-0.043 ± 0.2
F36Q	-0.214 ± 0.17
F36R	0.368 ± 0.17
F36T	0.071 ± 0.11
F36V	0.017 ± 0.073
F36W	-0.714 ± 0.23
F36Y	-0.04 ± 0.14
S37A	-0.246 ± 0.13
S37C	-0.629 ± 0.26
S37D	-0.157 ± 0.4
S37E	-0.32 ± 0.13
S37F	-0.841 ± 0.28
S37G	-0.44 ± 0.12
S37H	-0.076 ± 0.11
S37K	-0.532 ± 0.18
S37L	-0.629 ± 0.11
S37N	-0.338 ± 0.3
S37Q	-0.386 ± 0.26
S37R	-0.55 ± 0.12
S37T	-0.337 ± 0.14

Variant	abundance fitness
S37V	-0.7 ± 0.19
S37Y	-0.725 ± 0.3
Q38A	-0.143 ± 0.1
Q38C	-0.32 ± 0.15
Q38D	-0.075 ± 0.4
Q38E	0.192 ± 0.089
Q38F	-0.356 ± 0.21
Q38G	0.003 ± 0.065
Q38H	-0.524 ± 0.31
Q38K	-0.18 ± 0.1
Q38L	-0.531 ± 0.097
Q38M	-0.498 ± 0.11
Q38N	-0.435 ± 0.38
Q38P	-0.028 ± 0.12
Q38R	-0.103 ± 0.066
Q38S	-0.082 ± 0.062
Q38T	0.079 ± 0.076
Q38V	-0.421 ± 0.09
Q38Y	-0.207 ± 0.28
T39A	-0.011 ± 0.085
T39D	0.014 ± 0.2
T39E	0.11 ± 0.11
T39F	-0.509 ± 0.32
T39G	-0.215 ± 0.083

Variant	abundance fitness
T39H	0.074 ± 0.39
T39I	-0.157 ± 0.14
T39K	-0.006 ± 0.18
T39L	-0.195 ± 0.086
T39M	-0.502 ± 0.13
T39P	-0.579 ± 0.18
T39Q	-0.077 ± 0.13
T39R	-0.058 ± 0.07
T39S	-0.099 ± 0.095
T39W	-0.846 ± 0.23
T39Y	-0.769 ± 0.33
T40A	-0.386 ± 0.1
T40C	-0.615 ± 0.16
T40D	-0.393 ± 0.36
T40E	-0.237 ± 0.11
T40G	-0.92 ± 0.15
T40H	-0.778 ± 0.4
T40I	-0.553 ± 0.22
T40K	-0.179 ± 0.097
T40N	-0.734 ± 0.32
T40P	-0.704 ± 0.46
T40Q	-0.102 ± 0.078
T40R	-0.583 ± 0.086
T40S	-0.49 ± 0.11

Variant	abundance fitness
T40V	-0.174 ± 0.088
T40W	-0.441 ± 0.12
T40Y	-0.59 ± 0.25
C42A	0.076 ± 0.079
C42D	0.032 ± 0.11
C42G	-0.014 ± 0.048
C42H	-0.006 ± 0.24
C42I	0.11 ± 0.17
C42K	0.13 ± 0.099
C42L	-0.193 ± 0.07
C42M	-0.284 ± 0.12
C42N	0.208 ± 0.04
C42P	-0.276 ± 0.092
C42Q	0.06 ± 0.081
C42R	0.054 ± 0.061
C42S	-0.14 ± 0.089
C42T	-0.176 ± 0.1
C42W	-0.38 ± 0.078
C42Y	0.055 ± 0.11
R43C	-0.447 ± 0.37
R43D	-0.402 ± 0.26
R43E	-0.076 ± 0.1
R43G	-0.798 ± 0.12
